Key:
SHP2-C SH2 = test: SH2 binding enrichment of the phosphorylated peptide, bacterial display (enrichment ratio); higher = better substrate or ligand; peptides without Tyr show the background
Grb2 SH2 = Grb2 SH2 (UniProt P62993); test: as above
c-Src SH2 = test: as above
FGFR1 = FGFR1 (UniProt P11362); test: phosphorylation enrichment, bacterial display (enrichment ratio); higher = better substrate or ligand; peptides without Tyr show the background
EPHB1 = EPHB1 (UniProt P54762); test: as above
Hck = Hck (UniProt P08631); test: as above
Fyn = Fyn (UniProt P06241); test: as above
Fes = Fes (UniProt P07332); test: as above
MERTK = MERTK (UniProt Q12866); test: as above
c-Src = test: as above
FGFR3 = FGFR3 (UniProt P22607); test: as above
AncSZ = test: as above
EPHB2 = EPHB2 (UniProt P29323); test: as above
Jak2 = Jak2 (UniProt O60674); test: as above
c-Abl (mouse) = test: as above
Fer (mouse) = test: as above
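Throughout, for SH2 binding enrichment of the phosphorylated peptide, bacterial display: peptide library displayed on the E. coli surface as eCPX fusions, selected cells deep-sequenced, score is each peptide's frequency after selection divided by its frequency in the input.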
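Throughout, for phosphorylation enrichment, bacterial display: 11-residue human phosphosite peptides and single-mutation variants displayed on the E. coli surface, counted by deep sequencing, each peptide's frequency after selection divided by its frequency in the unselected input library; frequency after pTyr selection over input frequency; kinase dosed for 20-30% of maximal phosphorylation in three min.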

Chain of Hck (P08631 whole entry, looked up): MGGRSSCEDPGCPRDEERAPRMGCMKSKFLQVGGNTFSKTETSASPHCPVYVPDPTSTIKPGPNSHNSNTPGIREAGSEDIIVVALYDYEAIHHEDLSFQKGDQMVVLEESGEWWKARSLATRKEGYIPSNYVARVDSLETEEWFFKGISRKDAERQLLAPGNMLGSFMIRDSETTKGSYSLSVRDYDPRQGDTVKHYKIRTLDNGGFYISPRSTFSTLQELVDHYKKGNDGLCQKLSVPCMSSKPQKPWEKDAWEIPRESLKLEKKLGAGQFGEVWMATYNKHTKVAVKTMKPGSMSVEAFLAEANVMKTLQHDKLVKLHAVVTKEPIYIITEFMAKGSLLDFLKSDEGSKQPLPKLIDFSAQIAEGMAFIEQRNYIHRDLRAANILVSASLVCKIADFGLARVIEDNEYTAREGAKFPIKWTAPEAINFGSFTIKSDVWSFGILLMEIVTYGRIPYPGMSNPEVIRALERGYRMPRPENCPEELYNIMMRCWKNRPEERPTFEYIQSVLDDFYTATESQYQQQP
Chain of EPHB1 (P54762 whole entry, looked up): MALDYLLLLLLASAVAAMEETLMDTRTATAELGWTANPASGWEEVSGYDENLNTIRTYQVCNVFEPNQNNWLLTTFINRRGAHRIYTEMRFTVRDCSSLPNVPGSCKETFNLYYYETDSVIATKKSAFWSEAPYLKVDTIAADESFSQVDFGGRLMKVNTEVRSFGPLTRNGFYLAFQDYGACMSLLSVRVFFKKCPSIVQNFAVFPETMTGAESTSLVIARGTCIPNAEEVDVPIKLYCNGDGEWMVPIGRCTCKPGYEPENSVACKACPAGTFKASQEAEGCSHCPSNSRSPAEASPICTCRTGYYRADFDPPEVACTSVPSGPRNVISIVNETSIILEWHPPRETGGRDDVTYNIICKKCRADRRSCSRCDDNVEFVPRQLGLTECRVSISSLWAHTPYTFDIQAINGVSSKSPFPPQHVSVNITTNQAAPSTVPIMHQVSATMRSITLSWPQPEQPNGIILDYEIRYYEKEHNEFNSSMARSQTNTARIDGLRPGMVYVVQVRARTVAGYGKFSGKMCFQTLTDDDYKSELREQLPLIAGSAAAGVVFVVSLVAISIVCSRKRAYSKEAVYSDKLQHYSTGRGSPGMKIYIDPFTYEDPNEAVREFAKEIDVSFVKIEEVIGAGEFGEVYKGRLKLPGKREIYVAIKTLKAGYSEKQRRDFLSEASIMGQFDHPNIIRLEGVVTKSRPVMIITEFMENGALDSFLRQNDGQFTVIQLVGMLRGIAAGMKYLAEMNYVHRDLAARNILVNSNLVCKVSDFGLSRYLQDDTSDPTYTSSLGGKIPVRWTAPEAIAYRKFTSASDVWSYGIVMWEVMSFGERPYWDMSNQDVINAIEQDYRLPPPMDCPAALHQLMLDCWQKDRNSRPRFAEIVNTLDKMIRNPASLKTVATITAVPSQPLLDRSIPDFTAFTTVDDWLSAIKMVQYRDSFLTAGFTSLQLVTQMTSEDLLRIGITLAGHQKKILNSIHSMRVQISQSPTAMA
Chain of FGFR3 (P22607 whole entry, looked up): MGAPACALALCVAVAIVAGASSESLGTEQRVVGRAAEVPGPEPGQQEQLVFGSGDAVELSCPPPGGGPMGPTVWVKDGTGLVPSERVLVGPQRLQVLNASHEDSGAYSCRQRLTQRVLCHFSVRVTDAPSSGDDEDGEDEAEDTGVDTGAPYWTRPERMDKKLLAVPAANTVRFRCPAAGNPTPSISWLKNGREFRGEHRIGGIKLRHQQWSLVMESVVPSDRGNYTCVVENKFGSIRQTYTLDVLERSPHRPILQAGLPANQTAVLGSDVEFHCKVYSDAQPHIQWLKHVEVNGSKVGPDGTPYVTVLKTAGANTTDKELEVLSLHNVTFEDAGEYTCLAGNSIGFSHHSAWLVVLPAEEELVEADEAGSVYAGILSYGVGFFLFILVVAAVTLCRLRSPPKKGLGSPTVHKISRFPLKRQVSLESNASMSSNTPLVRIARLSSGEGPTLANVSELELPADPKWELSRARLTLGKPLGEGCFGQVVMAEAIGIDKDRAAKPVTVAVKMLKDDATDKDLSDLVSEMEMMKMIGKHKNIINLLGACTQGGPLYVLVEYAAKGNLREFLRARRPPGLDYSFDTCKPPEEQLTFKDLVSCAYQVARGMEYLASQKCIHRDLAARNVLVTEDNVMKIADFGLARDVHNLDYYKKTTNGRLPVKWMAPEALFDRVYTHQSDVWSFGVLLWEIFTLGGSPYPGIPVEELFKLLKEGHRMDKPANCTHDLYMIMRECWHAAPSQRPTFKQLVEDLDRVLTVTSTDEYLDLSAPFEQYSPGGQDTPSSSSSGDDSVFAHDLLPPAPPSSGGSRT
Chain of EPHB2 (P29323 whole entry, looked up): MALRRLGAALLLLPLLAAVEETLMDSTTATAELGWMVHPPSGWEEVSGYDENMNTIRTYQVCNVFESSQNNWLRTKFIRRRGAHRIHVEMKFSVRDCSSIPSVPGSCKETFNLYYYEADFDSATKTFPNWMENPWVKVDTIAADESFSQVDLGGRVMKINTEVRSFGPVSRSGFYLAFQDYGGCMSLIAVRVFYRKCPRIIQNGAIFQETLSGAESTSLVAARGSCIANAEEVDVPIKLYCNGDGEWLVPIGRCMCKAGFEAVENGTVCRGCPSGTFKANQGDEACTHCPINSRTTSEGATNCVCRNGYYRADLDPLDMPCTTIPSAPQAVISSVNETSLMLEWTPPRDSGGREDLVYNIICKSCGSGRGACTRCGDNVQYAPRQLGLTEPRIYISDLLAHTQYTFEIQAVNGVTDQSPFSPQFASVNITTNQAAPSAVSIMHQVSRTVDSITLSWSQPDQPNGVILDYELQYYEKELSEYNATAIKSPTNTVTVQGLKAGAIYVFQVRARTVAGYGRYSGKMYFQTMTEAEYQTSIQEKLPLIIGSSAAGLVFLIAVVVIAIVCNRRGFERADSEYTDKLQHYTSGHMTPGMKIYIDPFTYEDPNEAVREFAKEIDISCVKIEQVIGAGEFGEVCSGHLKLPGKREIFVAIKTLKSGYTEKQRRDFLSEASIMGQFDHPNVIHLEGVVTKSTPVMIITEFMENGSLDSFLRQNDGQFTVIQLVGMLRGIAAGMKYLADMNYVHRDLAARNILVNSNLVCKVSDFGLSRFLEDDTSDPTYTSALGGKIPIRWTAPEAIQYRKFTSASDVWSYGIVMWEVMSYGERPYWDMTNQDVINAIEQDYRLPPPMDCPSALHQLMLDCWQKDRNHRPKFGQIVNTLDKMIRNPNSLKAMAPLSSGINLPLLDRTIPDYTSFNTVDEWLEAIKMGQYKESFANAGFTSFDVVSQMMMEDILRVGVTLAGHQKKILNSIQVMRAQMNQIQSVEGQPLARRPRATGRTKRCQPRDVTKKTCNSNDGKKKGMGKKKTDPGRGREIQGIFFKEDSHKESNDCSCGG
Chain of FGFR1 (P11362 whole entry, looked up): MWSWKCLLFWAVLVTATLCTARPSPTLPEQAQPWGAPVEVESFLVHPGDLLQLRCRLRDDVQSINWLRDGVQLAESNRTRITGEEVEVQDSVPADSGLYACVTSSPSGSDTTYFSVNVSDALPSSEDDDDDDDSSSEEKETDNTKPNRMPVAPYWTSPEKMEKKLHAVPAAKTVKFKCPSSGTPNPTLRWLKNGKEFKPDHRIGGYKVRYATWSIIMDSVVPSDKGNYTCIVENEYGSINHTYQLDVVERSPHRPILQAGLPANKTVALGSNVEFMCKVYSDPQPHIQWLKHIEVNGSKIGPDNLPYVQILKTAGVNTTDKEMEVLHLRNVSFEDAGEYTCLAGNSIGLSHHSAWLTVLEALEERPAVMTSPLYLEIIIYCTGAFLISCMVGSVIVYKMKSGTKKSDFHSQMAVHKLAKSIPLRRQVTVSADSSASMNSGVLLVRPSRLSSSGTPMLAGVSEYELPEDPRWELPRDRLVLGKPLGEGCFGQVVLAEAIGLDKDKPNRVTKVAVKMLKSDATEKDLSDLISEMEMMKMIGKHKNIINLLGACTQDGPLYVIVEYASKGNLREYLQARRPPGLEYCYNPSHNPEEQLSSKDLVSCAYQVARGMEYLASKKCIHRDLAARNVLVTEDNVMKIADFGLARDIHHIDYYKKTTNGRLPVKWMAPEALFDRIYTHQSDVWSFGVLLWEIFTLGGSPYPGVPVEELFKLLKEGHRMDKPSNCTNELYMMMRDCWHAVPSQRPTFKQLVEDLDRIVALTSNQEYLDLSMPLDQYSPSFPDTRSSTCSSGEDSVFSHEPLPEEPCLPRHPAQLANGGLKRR
Chain of Fes (P07332 whole entry, looked up): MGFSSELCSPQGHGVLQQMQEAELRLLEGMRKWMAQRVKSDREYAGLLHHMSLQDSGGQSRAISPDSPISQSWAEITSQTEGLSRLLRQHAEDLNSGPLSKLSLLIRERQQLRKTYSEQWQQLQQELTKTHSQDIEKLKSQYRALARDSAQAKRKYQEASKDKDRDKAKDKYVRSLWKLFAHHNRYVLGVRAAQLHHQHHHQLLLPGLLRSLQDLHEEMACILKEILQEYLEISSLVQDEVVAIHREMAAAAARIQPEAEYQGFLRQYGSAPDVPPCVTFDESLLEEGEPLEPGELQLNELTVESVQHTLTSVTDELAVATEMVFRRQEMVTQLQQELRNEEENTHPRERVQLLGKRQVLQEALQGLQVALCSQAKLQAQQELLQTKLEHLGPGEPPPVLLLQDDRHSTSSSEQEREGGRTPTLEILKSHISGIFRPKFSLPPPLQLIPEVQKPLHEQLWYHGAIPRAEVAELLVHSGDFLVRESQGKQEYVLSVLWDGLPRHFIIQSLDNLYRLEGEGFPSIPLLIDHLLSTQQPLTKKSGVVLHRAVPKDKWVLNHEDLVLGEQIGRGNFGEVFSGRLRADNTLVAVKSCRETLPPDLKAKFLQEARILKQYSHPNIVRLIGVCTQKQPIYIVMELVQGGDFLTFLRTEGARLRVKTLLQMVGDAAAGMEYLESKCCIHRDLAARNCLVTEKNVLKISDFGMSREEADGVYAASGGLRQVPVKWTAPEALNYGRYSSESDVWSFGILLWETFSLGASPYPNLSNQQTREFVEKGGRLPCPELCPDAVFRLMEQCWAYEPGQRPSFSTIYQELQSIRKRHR

Sequence	SH2 binding enrichment (SHP2-C SH2)	SH2 binding enrichment (Grb2 SH2)	SH2 binding enrichment (c-Src SH2)	phosphorylation enrichment (FGFR1)	phosphorylation enrichment (EPHB1)	phosphorylation enrichment (Hck)	phosphorylation enrichment (Fyn)	phosphorylation enrichment (Fes)	phosphorylation enrichment (MERTK)	phosphorylation enrichment (c-Src)	phosphorylation enrichment (FGFR3)	phosphorylation enrichment (AncSZ)	phosphorylation enrichment (EPHB2)	phosphorylation enrichment (Jak2)	phosphorylation enrichment (c-Abl (mouse))	phosphorylation enrichment (Fer (mouse))
NTVLGYFIGRI [GARS1_Y408]	1.08	1.14	0.637	0.443	0.48	0.495	0.427	1.09	0.423	0.348	0.617	0.973	0.44	0.735	0.634	0.479
KRGASYILKLA [SERPINB1_Y84]	1.5	1.64	1.24	0.509	0.37	0.414	0.408	1.06	0.421	0.421	0.76	0.96	0.477	0.952	0.802	0.415
MARDIYQASYY [LTK_Y672_R673Q]	1.03	1.12	0.919	1.41	2.55	6.75	5.45	0.879	5.18	6.26	1.19	1.04	3.03	0.78	3.09	1.97
KSVLVYRNGDP [DCDC2_Y22]	0.829	0.972	0.622	0.362	0.431	0.405	0.426	0.617	0.355	0.4	0.449	0.539	0.401	0.55	0.446	0.435
HIAKGYRRDNP [HARS1_Y156_V155G]	0.43	0.456	0.213	0.33	0.363	0.572	0.427	0.539	0.399	0.451	0.326	0.731	0.429	0.409	0.543	0.438

The next lines start with results.

SH2 binding enrichment (SHP2-C SH2)	SH2 binding enrichment (Grb2 SH2)	SH2 binding enrichment (c-Src SH2)	Sequence	phosphorylation enrichment (FGFR1)	phosphorylation enrichment (EPHB1)	phosphorylation enrichment (Hck)	phosphorylation enrichment (Fyn)	phosphorylation enrichment (Fes)	phosphorylation enrichment (MERTK)	phosphorylation enrichment (c-Src)	phosphorylation enrichment (FGFR3)	phosphorylation enrichment (AncSZ)	phosphorylation enrichment (EPHB2)	phosphorylation enrichment (Jak2)	phosphorylation enrichment (c-Abl (mouse))	phosphorylation enrichment (Fer (mouse))
0.74	0.709	0.559	GLQDEYDFKCK [STAT1_Y170_D165G]	0.626	0.509	0.597	0.453	1.12	0.453	0.543	0.555	1.09	0.63	1.18	0.831	0.467
0.712	1.02	0.532	SGEKPYKCSVC [ZNF543_Y283_E287V]	0.342	0.261	0.255	0.373	0.524	0.416	0.365	0.355	0.495	0.298	0.434	0.493	0.398
0.483	0.669	0.4	SFCFRYRCAAR [SUMF1_Y344_YF]	0.47	0.466	0.469	0.49	0.634	0.614	0.618	0.54	0.772	0.571	0.643	0.763	0.472
